The numbers were not newly measured in PMC6815954, “Rational design of caspase-responsive smart molecular probe for positron emission tomography imaging of drug-induced apoptosis” (Theranostics, 2019), which cites them from elsewhere.

The subject of the data set is tumor. Details: method as in PMID 25972517.

B1: ^99mTc-Annexin V: established radiotracer (protein, UniProt P08758 2-320, looked up)
Annexin A5: AQVLRGTVTDFPGFDERADAETLRKAMKGLGTDEESILTLLTSRSNAQRQEISAAFKTLFGRDLLDDLKSELTGKFEKLIVALMKPSRLYDAYELKHALKGAGTNEKVLTEIIASRTPEELRAIKQVYEEEYGSSLEDDVVGDTSGYYQRMLVVLLQANRDPDAGIDEAQVEQDAQALFQAGELKWGTDEEKFITIFGTRSVSHLRKVFDKYMTISGFQIEETIDRETSGNLEQLLLAVVKSIRSIPAYLAETLYYAMKGAGTDDHTLIRVMVSRSEIDLFNIRKEFRKNFATSLYSMIKGDTSGDYKKALLLLCGEDD
modifications: 99mTc radiolabel
notes: established radiotracer
As for B1, the “differential response to treatment” value was “little differential response”.
